These are literature values, as cited in paper PMC4651712.

By Kd is commonly meant the concentration at which binding is half-saturated.

In this data set the target is PTHR1 (Homo sapiens) (UniProt Q03431).
Sequence of UniProt Q03431 (Q03431 27-593): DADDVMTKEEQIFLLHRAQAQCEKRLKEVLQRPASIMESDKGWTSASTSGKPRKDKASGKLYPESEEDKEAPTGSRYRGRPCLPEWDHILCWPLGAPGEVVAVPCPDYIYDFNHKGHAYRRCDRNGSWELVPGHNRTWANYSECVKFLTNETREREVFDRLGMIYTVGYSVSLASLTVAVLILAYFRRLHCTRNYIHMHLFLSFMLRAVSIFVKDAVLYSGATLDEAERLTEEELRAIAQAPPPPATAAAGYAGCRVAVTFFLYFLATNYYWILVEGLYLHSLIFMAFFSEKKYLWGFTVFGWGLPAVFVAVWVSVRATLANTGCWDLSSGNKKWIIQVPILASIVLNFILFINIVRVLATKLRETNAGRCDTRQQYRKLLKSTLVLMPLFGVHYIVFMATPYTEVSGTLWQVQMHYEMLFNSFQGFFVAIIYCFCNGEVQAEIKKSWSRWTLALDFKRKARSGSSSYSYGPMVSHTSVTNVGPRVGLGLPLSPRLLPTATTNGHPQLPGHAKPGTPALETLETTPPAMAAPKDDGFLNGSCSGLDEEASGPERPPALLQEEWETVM

As to PTH (from UniProt P01270), the Kd was 1 nM.
